Experimental data as given in IntAct's records for PubMed 15558030.

B1: Proto-oncogene vav (Homo sapiens), P15498 (parent)
chain: MELWRQCTHWLIQCRVLPPSHRVTWDGAQVCELAQALRDGVLLCQLLNNLLPHAINLREVNLRPQMSQFLCLKNIRTFLSTCCEKFGLKRSELFEAFDLFDVQDFGKVIYTLSALSWTPIAQNRGIMPFPTEEESVGDEDIYSGLSDQIDDTVEEDEDLYDCVENEEAEGDEIYEDLMRSEPVSMPPKMTEYDKRCCCLREIQQTEEKYTDTLGSIQQHFLKPLQRFLKPQDIEIIFINIEDLLRVHTHFLKEMKEALGTPGAANLYQVFIKYKERFLVYGRYCSQVESASKHLDRVAAAREDVQMKLEECSQRANNGRFTLRDLLMVPMQRVLKYHLLLQELVKHTQEAMEKENLRLALDAMRDLAQCVNEVKRDNETLRQITNFQLSIENLDQSLAHYGRPKIDGELKITSVERRSKMDRYAFLLDKALLICKRRGDSYDLKDFVNLHSFQVRDDSSGDRDNKKWSHMFLLIEDQGAQGYELFFKTRELKKKWMEQFEMAISNIYPENATANGHDFQMFSFEETTSCKACQMLLRGTFYQGYRCHRCRASAHKECLGRVPPCGRHGQDFPGTMKKDKLHRRAQDKKRNELGLPKMEVFQEYYGLPPPPGAIGPFLRLNPGDIVELTKAEAEQNWWEGRNTSTNEIGWFPCNRVKPYVHGPPQDLSVHLWYAGPMERAGAESILANRSDGTFLVRQRVKDAAEFAISIKYNVEVKHIKIMTAEGLYRITEKKAFRGLTELVEFYQQNSLKDCFKSLDTTLQFPFKEPEKRTISRPAVGSTKYFGTAKARYDFCARDRSELSLKEGDIIKILNKKGQQGWWRGEIYGRVGWFPANYVEEDYSEYC
partner: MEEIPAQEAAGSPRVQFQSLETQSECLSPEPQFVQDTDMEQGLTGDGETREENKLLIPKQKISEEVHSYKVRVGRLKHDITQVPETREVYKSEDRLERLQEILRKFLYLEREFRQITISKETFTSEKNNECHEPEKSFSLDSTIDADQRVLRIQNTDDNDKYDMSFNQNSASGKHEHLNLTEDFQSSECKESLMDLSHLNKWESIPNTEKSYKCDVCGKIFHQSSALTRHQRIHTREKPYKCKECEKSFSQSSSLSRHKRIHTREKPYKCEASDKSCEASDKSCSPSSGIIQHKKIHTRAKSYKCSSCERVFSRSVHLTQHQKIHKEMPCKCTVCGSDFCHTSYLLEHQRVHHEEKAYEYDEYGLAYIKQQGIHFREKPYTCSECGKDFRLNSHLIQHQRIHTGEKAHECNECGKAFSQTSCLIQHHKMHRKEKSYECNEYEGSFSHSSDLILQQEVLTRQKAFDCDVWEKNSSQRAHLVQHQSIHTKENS

Variants of: B1
Settings: with zn655_human ZNF655, Q8N720

Variant | effect of a mutation on the interaction
Y836F | decreasing interaction
P833L | decreasing interaction
